From the supplement of paper PMC6755084

B1: minF1; the commonest letter at each place (parent)
chain: GAGACCGCAACTGAAAAGTTGTTATCAGAAATGGATGGGTTGAATTTCTGCACGTAGAAGCAAAAGGC

Variants of: B1
Experiment: fraction ligated after 30 min (ligated reads / total reads); higher = more ligase activity
Settings: with F1*subA RNA substrate (template-directed ligation), 42 °C
In short: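 Minimized ligase ribozyme variants came from oligo-pool templates that were PCR-amplified, T7-transcribed and gel-purified. Their ligated and unligated RNAs were separated on gels before barcoded reverse transcription and MiSeq sequencing, with core bases kept only at quality ≥30. The fraction ligated for each variant is its ligated reads as a proportion of all its reads.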

Variant	fraction ligated
GAGACCGCAACTGAAAAGTTGTTATCGGAAATGGATAGGTTGAATTTCTGCACGTAGAAGCAAAAGGC [A27G G37A]	0.00716
GAGACCGCAACTGAAAAGTTGTTATCGGAAATGGATCGGTTGAATTTCTGCACGTAGAAGCAAAAGGC [A27G G37C]	0.00672
GAGACCGCAACTGAAAAGTTGTTATCGGAAATGGATTGGTTGAATTTCTGCACGTAGAAGCAAAAGGC [A27G G37T]	0.0232
GAGACCGCAACTGAAAAGTTGTTATCGGAAATGGAGGGGTTGAATTTCTGCACGTAGAAGCAAAAGGC [A27G T36G]	0.0614
GAGACCGCAACTGAAAAGTTGTTATCGGAAATGGAAGGGTTGAATTTCTGCACGTAGAAGCAAAAGGC [A27G T36A]	0.0472
GAGACCGCAACTGAAAAGTTGTTATCGGAAATGGACGGGTTGAATTTCTGCACGTAGAAGCAAAAGGC [A27G T36C]	0.0221
GAGACCGCAACTGAAAAGTTGTTATCTGAAATAGATGGGTTGAATTTCTGCACGTAGAAGCAAAAGGC [A27T G33A]	0.829
GAGACCGCAACTGAAAAGTTGTTATCTGAAATTGATGGGTTGAATTTCTGCACGTAGAAGCAAAAGGC [A27T G33T]	0.737
GAGACCGCAACTGAAAAGTTGTTATCTGAAATCGATGGGTTGAATTTCTGCACGTAGAAGCAAAAGGC [A27T G33C]	0.822
GAGACCGCAACTGAAAAGTTGTTATCTGAGATGGATGGGTTGAATTTCTGCACGTAGAAGCAAAAGGC [A27T A30G]	0.851
GAGACCGCAACTGAAAAGTTGTTATCTGACATGGATGGGTTGAATTTCTGCACGTAGAAGCAAAAGGC [A27T A30C]	0.822
GAGACCGCAACTGAAAAGTTGTTATCTGATATGGATGGGTTGAATTTCTGCACGTAGAAGCAAAAGGC [A27T A30T]	0.834
GAGACCGCAACTGAAAAGTTGTTATCAAAAATAGATGGGTTGAATTTCTGCACGTAGAAGCAAAAGGC [G28A G33A]	0.791
GAGACCGCAACTGAAAAGTTGTTATCAAAAATCGATGGGTTGAATTTCTGCACGTAGAAGCAAAAGGC [G28A G33C]	0.719
GAGACCGCAACTGAAAAGTTGTTATCTGAAATGGATAGGTTGAATTTCTGCACGTAGAAGCAAAAGGC [A27T G37A]	0.0217
GAGACCGCAACTGAAAAGTTGTTATCTGAAATGGATCGGTTGAATTTCTGCACGTAGAAGCAAAAGGC [A27T G37C]	0.00946
GAGACCGCAACTGAAAAGTTGTTATCTGAAATGGATTGGTTGAATTTCTGCACGTAGAAGCAAAAGGC [A27T G37T]	0.0547
GAGACCGCAACTGAAAAGTTGTTATCTGAAATGTATGGGTTGAATTTCTGCACGTAGAAGCAAAAGGC [A27T G34T]	0.00294
GAGACCGCAACTGAAAAGTTGTTATCTGAAATGAATGGGTTGAATTTCTGCACGTAGAAGCAAAAGGC [A27T G34A]	0.285
GAGACCGCAACTGAAAAGTTGTTATCTGAAATGCATGGGTTGAATTTCTGCACGTAGAAGCAAAAGGC [A27T G34C]	0.00507

Variant	fraction ligated
GAGACCGCAACTGAAAAGTTGTTATCGGAAATAGATGGGTTGAATTTCTGCACGTAGAAGCAAAAGGC [A27G G33A]	0.814
GAGACCGCAACTGAAAAGTTGTTATCGGAAATTGATGGGTTGAATTTCTGCACGTAGAAGCAAAAGGC [A27G G33T]	0.807
GAGACCGCAACTGAAAAGTTGTTATCGGAAATCGATGGGTTGAATTTCTGCACGTAGAAGCAAAAGGC [A27G G33C]	0.35
GAGACCGCAACTGAAAAGTTGTTATCAAAAATGGATGGGTTGAATTTCTGCACGTAGAAGCAAAAGGC [G28A]	0.809
GAGACCGCAACTGAAAAGTTGTTATCAAAAATGGGTGGGTTGAATTTCTGCACGTAGAAGCAAAAGGC [G28A A35G]	0.246
GAGACCGCAACTGAAAAGTTGTTATCAAAAATGGTTGGGTTGAATTTCTGCACGTAGAAGCAAAAGGC [G28A A35T]	0.0165
GAGACCGCAACTGAAAAGTTGTTATCAAAAATGGCTGGGTTGAATTTCTGCACGTAGAAGCAAAAGGC [G28A A35C]	0.0346
GAGACCGCAACTGAAAAGTTGTTATCTGCAATGGATGGGTTGAATTTCTGCACGTAGAAGCAAAAGGC [A27T A29C]	0.808
GAGACCGCAACTGAAAAGTTGTTATCTGGAATGGATGGGTTGAATTTCTGCACGTAGAAGCAAAAGGC [A27T A29G]	0.829
GAGACCGCAACTGAAAAGTTGTTATCTGTAATGGATGGGTTGAATTTCTGCACGTAGAAGCAAAAGGC [A27T A29T]	0.832
GAGACCGCAACTGAAAAGTTGTTATCTGAAATGGATGGGTTTAATTTCTGCACGTAGAAGCAAAAGGC [A27T G42T]	0.444
GAGACCGCAACTGAAAAGTTGTTATCTGAAATGGATGGGTTCAATTTCTGCACGTAGAAGCAAAAGGC [A27T G42C]	0.0569
GAGACCGCAACTGAAAAGTTGTTATCTGAAATGGATGGGTTAAATTTCTGCACGTAGAAGCAAAAGGC [A27T G42A]	0.698
GAGACCGCAACTGAAAAGTTGTTATCTGAAATGGATGGGTTGAGTTTCTGCACGTAGAAGCAAAAGGC [A27T A44G]	0.825
GAGACCGCAACTGAAAAGTTGTTATCTGAAATGGATGGGTTGACTTTCTGCACGTAGAAGCAAAAGGC [A27T A44C]	0.766
GAGACCGCAACTGAAAAGTTGTTATCTGAAATGGATGGGTTGATTTTCTGCACGTAGAAGCAAAAGGC [A27T A44T]	0.827
GAGACCGCAACTGAAAAGTTGTTATCTTAAATGGATGGGTTGAATTTCTGCACGTAGAAGCAAAAGGC [A27T G28T]	0.833
GAGACCGCAACTGAAAAGTTGTTATCTCAAATGGATGGGTTGAATTTCTGCACGTAGAAGCAAAAGGC [A27T G28C]	0.765
GAGACCGCAACTGAAAAGTTGTTATCTAAAATGGATGGGTTGAATTTCTGCACGTAGAAGCAAAAGGC [A27T G28A]	0.825
